Laboratory results published in article PMC12828418, “Structural analyses and substrate profiling of PPEP-3 provide new insights into the molecular basis of Pro-Pro endopeptidase specificity” (iScience, 2025).

Molecular target: T1, PPEP-3 E154A/Y190F (proteolytically inactive double mutant of Pro-Pro endopeptidase 3 from Geobacillus … (Geobacillus thermodenitrificans strain …, UniProt A4INY2 27-235, E154A | Y190F))
T1 construct: codon optimised for E. coli, cloned in pET28a via NdeI/XhoI; Zinc metalloprotease; for the substrate complex the catalytic Zn2+ was partly removed with EDTA and ortho-phenanthroline (occupancy about 40-50%); Surmise: pET28a with NdeI/XhoI adds an N-terminal His6 tag with a thrombin site; no cleavage of the tag is described, and 381 uM = 10 mg/mL (about 26 kDa) fits a kept tag; source: E. coli …
T1 sequence (looked up): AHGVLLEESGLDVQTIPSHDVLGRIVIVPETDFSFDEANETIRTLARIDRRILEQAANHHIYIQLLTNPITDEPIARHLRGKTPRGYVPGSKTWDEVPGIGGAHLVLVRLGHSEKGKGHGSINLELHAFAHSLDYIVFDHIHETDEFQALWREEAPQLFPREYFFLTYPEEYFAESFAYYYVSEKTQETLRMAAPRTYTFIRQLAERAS
Experiment: crystal structure; co-crystal of the Zn2+-depleted (EDTA and ortho-phenanthroline) double mutant with the substrate peptide; sitting drop vapour diffusion, Morpheus E9, 0.1 M bicine/Trizma base pH 8.5; 2.02 Å, space group P212121, four monomers in the ASU
Conditions: both partners purified

binding result: binds
B1: Ac-EPLPPPP-NH2 substrate peptide (peptide)
peptide: Ac-EPLPPPP-NH2
notes: synthetic substrate peptide of PPEP-3; P3-P3' are PLPPPP, cleavage between P1 and P1' prolines; also called PLPPPP (P3-P3'); source: synthetic peptide
